For the test, the target named is histidine kinase UzcS (Caulobacter crescentus NA1000). As to the kind of experiment: cell-based or functional assay.
Chain of histidine kinase UzcS (Caulobacter crescentus NA1000) (chain, as listed by the source limits assumed, form in doubt): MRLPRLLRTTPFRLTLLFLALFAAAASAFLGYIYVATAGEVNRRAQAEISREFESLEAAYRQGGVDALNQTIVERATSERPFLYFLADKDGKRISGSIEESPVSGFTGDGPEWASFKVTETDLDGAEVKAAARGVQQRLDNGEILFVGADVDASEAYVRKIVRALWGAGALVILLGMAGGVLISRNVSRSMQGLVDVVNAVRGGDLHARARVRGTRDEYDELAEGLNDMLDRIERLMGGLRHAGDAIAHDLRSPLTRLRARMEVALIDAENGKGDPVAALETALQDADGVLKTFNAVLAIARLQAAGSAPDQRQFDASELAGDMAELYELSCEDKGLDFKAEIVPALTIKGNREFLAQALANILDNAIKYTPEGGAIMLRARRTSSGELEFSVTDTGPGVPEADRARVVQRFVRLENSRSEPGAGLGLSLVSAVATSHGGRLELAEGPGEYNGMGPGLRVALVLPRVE

In turn, UzcY (protein encoded by CCNA_03497) returned a fold decrease in U detection limit of UzcRS (reporter fluorescence in C. crescentus, +UzcY versus -UzcY, FIG. 12) of over 4 fold.

These data come from patent US20230332251A1.
